Measurements as given in US20060134756A1 (ZymoGenetics, published 2006).

Target: T1, CRF2-4/IL-22RA heterodimeric receptor on BaF3 cells (BaF3/CRF2-4/IL-22RA cells) (human, UniProt Q08334 20-325, limits assumed)
T1 sequence 1: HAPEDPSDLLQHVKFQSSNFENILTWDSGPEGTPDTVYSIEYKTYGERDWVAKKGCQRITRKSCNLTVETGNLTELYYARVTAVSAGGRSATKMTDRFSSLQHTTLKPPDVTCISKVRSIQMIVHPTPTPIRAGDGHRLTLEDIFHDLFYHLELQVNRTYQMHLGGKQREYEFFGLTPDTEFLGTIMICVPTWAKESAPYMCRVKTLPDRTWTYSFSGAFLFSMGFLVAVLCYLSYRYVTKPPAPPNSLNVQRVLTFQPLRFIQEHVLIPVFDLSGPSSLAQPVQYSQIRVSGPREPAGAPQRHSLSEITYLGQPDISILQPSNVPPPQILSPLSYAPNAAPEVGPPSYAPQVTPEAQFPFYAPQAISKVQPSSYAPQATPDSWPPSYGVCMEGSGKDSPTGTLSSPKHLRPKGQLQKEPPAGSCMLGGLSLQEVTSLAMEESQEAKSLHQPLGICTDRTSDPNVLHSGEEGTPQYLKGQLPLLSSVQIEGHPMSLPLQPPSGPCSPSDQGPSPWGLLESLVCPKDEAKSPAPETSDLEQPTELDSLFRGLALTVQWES
T1 sequence 2: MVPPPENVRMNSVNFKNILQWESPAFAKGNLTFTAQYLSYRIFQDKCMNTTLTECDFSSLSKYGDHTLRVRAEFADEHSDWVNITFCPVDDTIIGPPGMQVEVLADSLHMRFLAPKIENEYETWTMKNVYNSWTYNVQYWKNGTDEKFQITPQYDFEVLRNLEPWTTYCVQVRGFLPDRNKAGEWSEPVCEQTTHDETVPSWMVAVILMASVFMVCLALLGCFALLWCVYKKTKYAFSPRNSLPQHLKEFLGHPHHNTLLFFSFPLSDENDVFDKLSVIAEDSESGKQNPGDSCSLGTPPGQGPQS
Test: cell-based or functional assay

B1: IL-22-CEE (ligand)
chain: LLLALLVQGGAAAPISSHCRLDKSNFQQPYITNRTFMLAKEASLADNNTDVRLIGEKLFHGVSMSERCYLMKQVLNFTLEEVLFPQSDRFQPYMQEVVPFLARLSNRLSTCHIEGDDLHIQRNVQKLKDTVKKLGESGEIKAIGELEYMPME
proliferation of BaF3/CRF2-4/IL-22RA cells (Alamar Blue), IL-22-CEE at 0.06 ng/ml: ~2 fold over background
